Reference: the supplement of paper PMC12042874
± gives the uncertainty stated by the source.

Experiment: amyloid nucleation score (Sup35N fusion, yeast selection) (log enrichment); library NNK3; higher = more nucleation; inactive = no reads after selection
Method in brief: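 Nucleation score is defined as the DiMSum log enrichment of output over input reads, with centring on the mode score of non-aggregating sequences. A minimum of 100 input reads was required for each sequence. Reads came from Illumina sequencing of plasmid inserts from psi-negative yeast expressing Sup35N fused to peptides of 20 random codons, induced with 100 μM copper sulfate for 24 hours and grown 7 days at 30°C on medium lacking adenine and uracil.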
With GFETLYIYAVRGN the amyloid nucleation score was “inactive”. In the case of VESCRKDTYNSWFFDCLGDR, the amyloid nucleation score is reported as “inactive”. For VLIMPA, the amyloid nucleation score was “inactive”. For YGNGWTFWSFLWGSTNRQRT, the amyloid nucleation score was “inactive”. In the case of CNHVSLTMILVRVLNMFF, the amyloid nucleation score is reported as 0.968 ± 0.23. For AYWESNSIPR, the amyloid nucleation score was “inactive”. With FGANHKQVSWWDRMLSGTVR the amyloid nucleation score was “inactive”. With KWLVPTQG the amyloid nucleation score was “inactive”. For YRFYSNNPTRCS, the amyloid nucleation score was “inactive”. DIYSDWLFIVLRHLVIRVLS gave an amyloid nucleation score of 0.754 ± 0.12. In the case of VENGCGAT, the amyloid nucleation score is reported as “inactive”. For FLLNQIIGQLKHHLFVVSVN, the amyloid nucleation score was “inactive”. In the case of LTSESSDEICGGRATSVLCL, the amyloid nucleation score is reported as “inactive”. In the case of YSGGKGSGRELRYTLLVRGT, the amyloid nucleation score is reported as “inactive”. For TVMPIYQCSIGVKFSCDSAK, the amyloid nucleation score was 1.53 ± 0.072. For SYHYFGRYCGFR, the amyloid nucleation score was “inactive”. In the case of ARRGLPVARIIFSHDPNL, the amyloid nucleation score is reported as “inactive”. With YCQVGINWFYGAGMKGYILS the amyloid nucleation score was “inactive”. In the case of LCILMMKVKVCVGNGLFLSA, the amyloid nucleation score is reported as “inactive”. For SKVQVIFLSSFFGTIQLWVL, the amyloid nucleation score was “inactive”. Work on SAMCICLICALGVCPTMDGA yielded an amyloid nucleation score of 2.5 ± 0.073. In the case of PVLSDNYLTDFAFCYQYYMS, the amyloid nucleation score is reported as “inactive”. With GTGWVTSVFLCTVNWVDHRR the amyloid nucleation score was 2.4 ± 0.084. With GMALPRVIVFIGNRITTNLG the amyloid nucleation score was 2.31 ± 0.065. For IDFIVLSSL, the amyloid nucleation score was “inactive”. In the case of KLCVESRIIYTFV, the amyloid nucleation score is reported as “inactive”. For IFNWFDWIFRFSTTSPECLT, the amyloid nucleation score was “inactive”. With CIQLVVT the amyloid nucleation score was “inactive”. For MWSVPLKSQAILYTFDCVSL, the amyloid nucleation score was 0.174 ± 0.44. In the case of SKEAVLRVNPVVTFFSGSTR, the amyloid nucleation score is reported as “inactive”. With SLFFLSMFVHLMDEMWDWES the amyloid nucleation score was “inactive”. Substance LNFVVYMIGGFCCHHFNVLF has an amyloid nucleation score of 1.3 ± 0.1. Substance GWVYDMVYYRSVKMGCAKRS has an amyloid nucleation score of 0.389 ± 0.22. In the case of ITSSVSFSRPYGVRGLLKKG, the amyloid nucleation score is reported as 0.002 ± 0.43. For LYNILFWTPNFRFVSWYHCI, the amyloid nucleation score was “inactive”. In the case of NCNKMCRSCFRCQKTFWVWF, the amyloid nucleation score is reported as “inactive”. For WYRHGIVEYDAIIWDESARR, the amyloid nucleation score was “inactive”. STSYGLRIVSKNDDYLRTAR showed an amyloid nucleation score of 0.511 ± 0.19. In the case of DVLWSGSYSSRLPGSIRDCE, the amyloid nucleation score is reported as “inactive”. With YVFGKLSAFFFVRFNLQGLL the amyloid nucleation score was “inactive”. Substance YGVESAYKCRNVYFLYWCML has an amyloid nucleation score of 0.511 ± 0.13. For SMGLFDTQFVGELHVASRLF, the amyloid nucleation score was “inactive”. With YFVPWGFAKDRRKTHDLPAE the amyloid nucleation score was “inactive”. In the case of LVSERKAKNSRSGSLAFFRR, the amyloid nucleation score is reported as “inactive”. For SVFFYKYQALIRNEGEK, the amyloid nucleation score was “inactive”. SFSCYCTLLGLSVHYVNPTV gave an amyloid nucleation score of 1.82 ± 0.1. With FGEYVIRMSNCTLPKIMVIP the amyloid nucleation score was “inactive”. With ECAYWMILLGLDYNGHPNRP the amyloid nucleation score was “inactive”. For APRGVVLPWTLDIASSLLTP, the amyloid nucleation score was “inactive”. For LVVLLRFCGRAPGIGQSMGD, the amyloid nucleation score was “inactive”. With SLDCCNGVDRFKVSNILHYP the amyloid nucleation score was “inactive”. Substance TDFMSFINVERMCVILYPFA has an amyloid nucleation score of 1.36 ± 0.077. For NRFINASNS, the amyloid nucleation score was “inactive”. For CYNQRGCTIGILQFLPRPVW, the amyloid nucleation score was “inactive”. In the case of VQGIRFRELFGRPAVRVVWH, the amyloid nucleation score is reported as “inactive”. With TLGMLHRNWYYLLF the amyloid nucleation score was “inactive”. For RYNLSFFLYFSQANNHQNLF, the amyloid nucleation score was “inactive”. With NVYLKLTA the amyloid nucleation score was “inactive”. DCWHLRQLWGVMSCQ showed an amyloid nucleation score of 0.48 ± 0.42. PGDFISDEAMDSNVYFRLQS gave an amyloid nucleation score of -0.693 ± 0.8. PTGMPYNLTWFFWHATMPLL gave an amyloid nucleation score of -0.255 ± 0.33. With CMLAQRRVTPRRYRLVSSTI the amyloid nucleation score was “inactive”. In the case of ESMSHRGAPGRERVLRSNM, the amyloid nucleation score is reported as “inactive”. For LCESSLKDNGVTSLFVWVLK, the amyloid nucleation score was “inactive”. With LCNKWY the amyloid nucleation score was “inactive”. For TIMETALDLSMHPMNVH, the amyloid nucleation score was “inactive”. With KYLWDLATHNIFAGSKMMDN the amyloid nucleation score was “inactive”. For ITFIM, the amyloid nucleation score was “inactive”. For TGGRAPHRCVYSD, the amyloid nucleation score was “inactive”. For LCFARGLRCTSSVAVESGD, the amyloid nucleation score was “inactive”. RPFYLWNLNIICCPFIQTVK showed an amyloid nucleation score of 2.39 ± 0.072. Work on NEGSNATC yielded an amyloid nucleation score of 0.713 ± 0.13. For GSSISRRDFNVAILFWWQGD, the amyloid nucleation score was “inactive”. With WRVYVFNVLETYMLRVKWVG the amyloid nucleation score was “inactive”. With FDVRDRSRIGLSMTITWMKI the amyloid nucleation score was “inactive”. With YAIVGSRVVRLRSKNRRNLS the amyloid nucleation score was “inactive”. For PFRNMLGMNPNSQTLRVMVR, the amyloid nucleation score was “inactive”. With RACML the amyloid nucleation score was “inactive”. For CFTLFVSQYVNDLDDYKRNW, the amyloid nucleation score was 1.34 ± 0.092. In the case of WHCLTVFILKYEVGFCSSLR, the amyloid nucleation score is reported as “inactive”.
